# Data taken from publication PMC4231051.
# Positions count from the first letter of the chain named. Names may count otherwise.
# B1: BglA (β-glucosidase A) (Paenibacillus polymyxa; T231K) (protein)
# chain: TIFQFPQDFMWGTATAAYQIEGAYQEDGRGLSIWDTFAHTPGKVFNGDNGNVACDSYHRYEEDIRLMKELGIRTYRFSVSWPRIFPNGDGEVNQEGLDYYHRVVDLLNDNGIEPFCTLYHWDLPQALQDAGGWGNRRTIQAFVQFAETMFREFHGKIQHWLTFNEPWCIAFLSNMLGVHAPGLTNLQTAIDVGHHLLVAHGLSVRRFRELGTSGQIGIAPNVSWAVPYSKSEEDKAACARTISLHSDWFLQPIYQGSYPQFLVDWFAEQGATVPIQDGDMDIIGEPIDMIGINYYSMSVNRFNPEAGFLQSEEINMGLPVTDIGWPVESRGLYEVLHYLQKYGNIDIYITENGACINDEVVNGKVQDDRRISYMQQHLVQVHRTIHDGLHVKGYMAWSLLDNFEWAEGYNMRFGMIHVDFRTQVRTPKESYYWYRNVVSNNWLETRR
# B2: BglA (β-glucosidase A) (Paenibacillus polymyxa) (protein)
# chain: B1 chain with K230T
# B3: BglA (β-glucosidase A) (Paenibacillus polymyxa; E96K) (protein)
# chain: B1 chain with E95K, K230T
# B4: BglA (β-glucosidase A) (Paenibacillus polymyxa; E96R) (protein)
# chain: B1 chain with E95R, K230T
# B5: BglA (β-glucosidase A) (Paenibacillus polymyxa; Q216R) (protein)
# chain: B1 chain with Q215R, K230T
# Substrate: O=[N+]([O-])c1ccc(O[C@@H]2O[C@H](CO)[C@@H](O)[C@H](O)[C@H]2O)cc1
# Experiment: purified protein
# Conditions: 50 mM citrate phosphate buffer, pH 7.0, 37 °C, 5.5 min, 0.02-3 mM pNPG
Protein,Km [µM],kcat [s⁻¹],kcat/Km [M⁻¹ s⁻¹]
B1,610 ± 70,36.3,59300
B2,1210 ± 30,44.7,36900
B3,190 ± 10,28.4,149000
B4,470 ± 20,21.2,44800
B5,460 ± 0,26,56900
